Source: the supplement of paper PMC10065799, “High-throughput profiling of sequence recognition by tyrosine kinases and SH2 domains using bacterial peptide display” (eLife, 2023)

What was measured:
AncSZ = assay: phosphorylation enrichment, bacterial display (enrichment ratio); higher = better substrate or ligand; peptides without Tyr show the background
EPHB1 = EPHB1 (UniProt P54762); assay: as above
EPHB2 = EPHB2 (UniProt P29323); assay: as above
FGFR1 = FGFR1 (UniProt P11362); assay: as above
FGFR3 = FGFR3 (UniProt P22607); assay: as above
Fer (mouse) = assay: as above
Fes = Fes (UniProt P07332); assay: as above
Fyn = Fyn (UniProt P06241); assay: as above
Hck = Hck (UniProt P08631); assay: as above
Jak2 = Jak2 (UniProt O60674); assay: as above
MERTK = MERTK (UniProt Q12866); assay: as above
c-Abl (mouse) = assay: as above
c-Src = assay: as above
Grb2 SH2 = Grb2 SH2 (UniProt P62993); assay: SH2 binding enrichment of the phosphorylated peptide, bacterial display (enrichment ratio); higher = better substrate or ligand; peptides without Tyr show the background
SHP2-C SH2 = assay: as above
c-Src SH2 = assay: as above
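Wherever SH2 binding enrichment of the phosphorylated peptide, bacterial display is given: peptide library displayed on the E. coli surface as eCPX fusions, selected cells deep-sequenced, score is each peptide's frequency after selection divided by its frequency in the input.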
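Wherever phosphorylation enrichment, bacterial display is given: 11-residue human phosphosite peptides and single-mutation variants displayed on the E. coli surface, counted by deep sequencing, each peptide's frequency after selection divided by its frequency in the unselected input library; frequency after pTyr selection over input frequency; kinase dosed for 20-30% of maximal phosphorylation in three min.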

Chain of Jak2 (O60674 whole entry, looked up): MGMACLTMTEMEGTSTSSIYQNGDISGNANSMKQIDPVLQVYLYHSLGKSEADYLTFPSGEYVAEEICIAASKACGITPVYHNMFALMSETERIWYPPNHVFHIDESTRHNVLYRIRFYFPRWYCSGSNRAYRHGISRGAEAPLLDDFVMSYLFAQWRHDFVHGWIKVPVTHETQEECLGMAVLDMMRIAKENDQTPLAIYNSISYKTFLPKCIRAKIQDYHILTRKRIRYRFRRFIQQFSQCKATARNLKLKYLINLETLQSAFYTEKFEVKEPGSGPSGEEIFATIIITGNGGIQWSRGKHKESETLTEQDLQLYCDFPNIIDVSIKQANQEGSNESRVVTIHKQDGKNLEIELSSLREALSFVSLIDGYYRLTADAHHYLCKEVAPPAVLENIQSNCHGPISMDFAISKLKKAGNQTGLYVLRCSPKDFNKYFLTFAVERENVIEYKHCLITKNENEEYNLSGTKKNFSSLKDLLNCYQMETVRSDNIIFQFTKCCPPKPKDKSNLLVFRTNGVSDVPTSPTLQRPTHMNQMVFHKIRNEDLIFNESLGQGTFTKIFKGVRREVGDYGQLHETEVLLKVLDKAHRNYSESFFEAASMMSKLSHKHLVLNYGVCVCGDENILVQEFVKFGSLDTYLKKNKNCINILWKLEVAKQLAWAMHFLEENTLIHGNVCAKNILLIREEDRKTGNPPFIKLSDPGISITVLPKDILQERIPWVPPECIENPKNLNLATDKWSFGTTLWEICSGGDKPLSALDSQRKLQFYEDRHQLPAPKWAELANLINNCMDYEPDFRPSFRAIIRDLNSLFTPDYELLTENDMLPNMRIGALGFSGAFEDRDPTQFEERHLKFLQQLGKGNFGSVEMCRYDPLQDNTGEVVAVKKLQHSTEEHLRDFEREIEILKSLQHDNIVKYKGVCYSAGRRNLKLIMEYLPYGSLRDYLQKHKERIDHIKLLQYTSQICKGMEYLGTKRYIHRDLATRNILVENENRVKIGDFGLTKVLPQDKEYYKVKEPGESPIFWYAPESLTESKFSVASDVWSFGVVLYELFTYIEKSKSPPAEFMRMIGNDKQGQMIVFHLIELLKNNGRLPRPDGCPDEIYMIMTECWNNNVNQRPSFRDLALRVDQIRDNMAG
Chain of Fyn (P06241 whole entry, looked up): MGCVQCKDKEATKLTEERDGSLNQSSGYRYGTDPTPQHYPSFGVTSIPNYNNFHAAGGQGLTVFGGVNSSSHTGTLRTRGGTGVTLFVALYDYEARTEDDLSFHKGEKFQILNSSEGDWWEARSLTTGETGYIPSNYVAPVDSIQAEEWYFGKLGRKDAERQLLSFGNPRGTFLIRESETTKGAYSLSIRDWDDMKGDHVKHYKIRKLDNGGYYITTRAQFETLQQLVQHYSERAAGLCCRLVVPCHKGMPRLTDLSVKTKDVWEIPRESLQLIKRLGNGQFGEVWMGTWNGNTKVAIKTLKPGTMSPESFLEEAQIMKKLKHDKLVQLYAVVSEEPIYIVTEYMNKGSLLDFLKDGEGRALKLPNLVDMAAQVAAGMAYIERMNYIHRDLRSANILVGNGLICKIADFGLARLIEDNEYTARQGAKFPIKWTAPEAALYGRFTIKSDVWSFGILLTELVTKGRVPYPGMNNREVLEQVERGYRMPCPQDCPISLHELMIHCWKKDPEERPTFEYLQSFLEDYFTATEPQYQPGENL
Chain of EPHB2 (P29323 whole entry, looked up): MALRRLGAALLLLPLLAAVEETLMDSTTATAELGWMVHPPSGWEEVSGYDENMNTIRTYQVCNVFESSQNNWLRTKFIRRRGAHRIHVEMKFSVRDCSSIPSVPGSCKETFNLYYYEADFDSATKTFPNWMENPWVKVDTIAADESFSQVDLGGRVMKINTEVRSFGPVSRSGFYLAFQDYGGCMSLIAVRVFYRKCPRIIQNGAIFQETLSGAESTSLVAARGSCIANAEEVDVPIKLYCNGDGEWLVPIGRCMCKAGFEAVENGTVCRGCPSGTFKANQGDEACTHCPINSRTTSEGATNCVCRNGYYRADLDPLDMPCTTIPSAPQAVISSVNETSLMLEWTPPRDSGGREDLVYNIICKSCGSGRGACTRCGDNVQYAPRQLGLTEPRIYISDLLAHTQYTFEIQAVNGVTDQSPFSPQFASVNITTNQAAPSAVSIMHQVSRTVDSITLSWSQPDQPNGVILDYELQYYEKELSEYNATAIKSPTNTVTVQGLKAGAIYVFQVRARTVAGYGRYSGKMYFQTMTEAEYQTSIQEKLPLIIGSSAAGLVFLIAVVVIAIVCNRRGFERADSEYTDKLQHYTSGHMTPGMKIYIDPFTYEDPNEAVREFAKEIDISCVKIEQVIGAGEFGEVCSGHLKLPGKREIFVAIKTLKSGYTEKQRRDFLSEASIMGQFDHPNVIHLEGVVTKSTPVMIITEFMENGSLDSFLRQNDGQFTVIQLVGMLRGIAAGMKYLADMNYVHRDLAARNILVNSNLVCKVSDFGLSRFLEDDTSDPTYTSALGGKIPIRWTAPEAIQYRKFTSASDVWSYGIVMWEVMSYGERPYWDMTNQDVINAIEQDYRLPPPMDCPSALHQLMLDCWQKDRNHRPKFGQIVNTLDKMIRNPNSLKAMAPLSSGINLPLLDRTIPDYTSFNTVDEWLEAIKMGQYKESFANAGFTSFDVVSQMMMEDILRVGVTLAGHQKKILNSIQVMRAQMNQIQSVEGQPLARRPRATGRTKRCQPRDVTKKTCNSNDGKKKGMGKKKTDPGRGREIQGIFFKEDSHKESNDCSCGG
Chain of Hck (P08631 whole entry, looked up): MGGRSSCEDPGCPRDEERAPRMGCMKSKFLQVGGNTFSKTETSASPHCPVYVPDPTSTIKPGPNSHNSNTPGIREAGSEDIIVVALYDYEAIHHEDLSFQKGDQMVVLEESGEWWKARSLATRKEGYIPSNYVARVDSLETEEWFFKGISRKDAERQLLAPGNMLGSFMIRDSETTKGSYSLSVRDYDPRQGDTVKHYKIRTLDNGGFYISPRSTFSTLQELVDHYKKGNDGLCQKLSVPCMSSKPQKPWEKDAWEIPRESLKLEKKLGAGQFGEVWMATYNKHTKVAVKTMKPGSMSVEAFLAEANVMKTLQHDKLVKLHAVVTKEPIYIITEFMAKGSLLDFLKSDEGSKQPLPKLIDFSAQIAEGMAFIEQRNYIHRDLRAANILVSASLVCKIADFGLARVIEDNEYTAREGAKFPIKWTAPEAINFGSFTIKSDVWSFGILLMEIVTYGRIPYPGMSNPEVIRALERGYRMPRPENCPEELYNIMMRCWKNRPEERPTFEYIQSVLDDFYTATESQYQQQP
Chain of Fes (P07332 whole entry, looked up): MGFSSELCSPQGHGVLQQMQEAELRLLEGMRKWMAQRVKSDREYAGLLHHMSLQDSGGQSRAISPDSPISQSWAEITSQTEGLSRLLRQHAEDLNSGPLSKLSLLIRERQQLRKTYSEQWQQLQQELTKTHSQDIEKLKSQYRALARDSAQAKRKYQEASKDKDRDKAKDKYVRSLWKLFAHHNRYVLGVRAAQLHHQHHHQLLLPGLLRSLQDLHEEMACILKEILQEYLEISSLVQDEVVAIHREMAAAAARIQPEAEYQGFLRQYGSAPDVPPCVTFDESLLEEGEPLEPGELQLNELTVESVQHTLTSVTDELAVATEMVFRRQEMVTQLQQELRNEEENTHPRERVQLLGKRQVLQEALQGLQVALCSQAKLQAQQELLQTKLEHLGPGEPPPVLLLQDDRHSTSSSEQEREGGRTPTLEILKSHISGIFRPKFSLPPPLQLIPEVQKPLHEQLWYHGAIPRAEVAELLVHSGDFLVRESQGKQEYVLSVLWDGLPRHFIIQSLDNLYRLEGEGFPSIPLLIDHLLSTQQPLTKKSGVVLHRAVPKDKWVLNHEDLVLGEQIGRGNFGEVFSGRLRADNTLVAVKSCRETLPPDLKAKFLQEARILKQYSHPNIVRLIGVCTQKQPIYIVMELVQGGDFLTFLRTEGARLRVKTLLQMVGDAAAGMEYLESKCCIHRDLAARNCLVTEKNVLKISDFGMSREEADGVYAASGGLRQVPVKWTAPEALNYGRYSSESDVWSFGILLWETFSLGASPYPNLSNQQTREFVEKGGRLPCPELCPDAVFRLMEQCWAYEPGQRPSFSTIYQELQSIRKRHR
Chain of MERTK (Q12866 whole entry, looked up): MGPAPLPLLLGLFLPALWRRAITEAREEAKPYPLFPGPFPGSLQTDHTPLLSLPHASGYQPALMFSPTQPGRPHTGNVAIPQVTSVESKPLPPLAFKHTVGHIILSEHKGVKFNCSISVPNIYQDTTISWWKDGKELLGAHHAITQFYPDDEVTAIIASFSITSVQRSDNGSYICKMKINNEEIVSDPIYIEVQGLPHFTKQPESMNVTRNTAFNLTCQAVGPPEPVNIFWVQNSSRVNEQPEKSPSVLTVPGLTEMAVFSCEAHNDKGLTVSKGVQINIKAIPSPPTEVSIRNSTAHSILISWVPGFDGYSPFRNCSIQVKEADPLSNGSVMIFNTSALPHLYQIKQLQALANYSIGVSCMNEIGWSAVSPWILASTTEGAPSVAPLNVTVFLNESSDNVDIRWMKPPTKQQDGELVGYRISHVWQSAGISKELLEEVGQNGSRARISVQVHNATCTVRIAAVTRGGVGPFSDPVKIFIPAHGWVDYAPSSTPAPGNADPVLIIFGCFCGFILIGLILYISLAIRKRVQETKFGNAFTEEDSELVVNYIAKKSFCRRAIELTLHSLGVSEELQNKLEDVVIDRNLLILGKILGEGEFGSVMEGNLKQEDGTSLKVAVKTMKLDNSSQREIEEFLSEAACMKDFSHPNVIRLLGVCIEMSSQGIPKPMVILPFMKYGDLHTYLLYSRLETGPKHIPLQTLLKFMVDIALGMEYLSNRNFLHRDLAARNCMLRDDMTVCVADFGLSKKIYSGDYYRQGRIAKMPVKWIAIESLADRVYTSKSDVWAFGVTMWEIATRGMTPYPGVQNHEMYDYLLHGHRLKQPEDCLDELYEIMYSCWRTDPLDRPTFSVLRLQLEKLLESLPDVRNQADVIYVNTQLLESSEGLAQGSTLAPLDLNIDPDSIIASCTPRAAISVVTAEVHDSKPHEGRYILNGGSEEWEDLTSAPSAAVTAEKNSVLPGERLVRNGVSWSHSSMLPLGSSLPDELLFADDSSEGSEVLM

SH2 binding enrichment (Grb2 SH2)	SH2 binding enrichment (SHP2-C SH2)	SH2 binding enrichment (c-Src SH2)	Sequence	phosphorylation enrichment (AncSZ)	phosphorylation enrichment (EPHB1)	phosphorylation enrichment (EPHB2)	phosphorylation enrichment (FGFR1)	phosphorylation enrichment (FGFR3)	phosphorylation enrichment (Fer (mouse))	phosphorylation enrichment (Fes)	phosphorylation enrichment (Fyn)	phosphorylation enrichment (Hck)	phosphorylation enrichment (Jak2)	phosphorylation enrichment (MERTK)	phosphorylation enrichment (c-Abl (mouse))	phosphorylation enrichment (c-Src)
0.87	0.733	0.47	FKDGQYWIRGW [ACSF3_Y466_R471W]	0.998	0.624	0.624	0.609	0.551	0.372	1.13	0.513	0.799	0.927	0.345	0.636	0.534
1.02	0.958	0.548	FKIFRYTLNDN [FN1_Y1975_L1974R_YF]	1.02	0.518	0.525	0.529	0.589	0.403	1.03	0.42	0.464	1.01	0.377	0.614	0.36
0.835	0.888	0.57	FLAATYPTVGQ [NF1_Y2508_YF]	0.548	0.444	0.494	0.357	0.523	0.593	0.634	0.435	0.518	0.404	0.396	0.401	0.426
1.08	0.934	0.569	FLEEEYVKAVG [TF_Y674_G671E_YF]	1.19	0.59	0.67	0.517	0.721	0.49	1.16	0.558	0.517	1.18	0.424	0.679	0.528
0.848	0.749	0.413	FLKDVYVDSKD [NDUFAF4_Y69]	1.11	0.459	0.512	0.488	0.731	0.557	0.983	0.48	0.707	0.855	0.471	0.66	0.471
0.798	0.66	0.457	FLQTDDTSQVS [FRMPD1_Y846_Y846D]	1.05	0.632	0.648	0.445	0.645	0.49	1.12	0.481	0.587	0.99	0.622	1.07	0.476
0.885	1.62	5.53	FLRTGYSVPFG [TGM1_Y370_YF]	0.875	0.523	0.515	0.504	0.632	0.466	0.955	0.729	0.461	0.929	0.561	0.945	0.53
0.809	0.927	13.9	FLTQHYDAIPQ [ANG_Y38_K41I]	0.885	0.715	0.51	0.639	0.866	9.86	0.855	0.586	2.88	0.608	2.46	0.611	0.678
0.598	0.588	1.43	FMGVEYSSCDT [EPHA3_Y937_T933M]	1.32	0.683	0.756	0.601	0.838	0.64	1.31	0.441	0.61	1.2	0.479	0.827	0.521
0.992	1.12	3.95	FNNPAYYVLEG [INPPL1_Y986]	1.2	0.851	0.704	12.1	9.49	0.485	0.958	1.75	1.11	4.76	7.95	0.767	2.06
1.11	1.08	0.468	FPHVISARLWR [SMAD4_Y95_Y95S]	1	0.419	0.547	0.477	0.557	0.524	0.962	0.581	0.429	0.805	0.458	0.701	0.498
0.844	0.754	0.634	FRIGPYQPNVP [MATR3_Y784_YF]	0.773	0.477	0.514	0.538	0.736	0.446	0.966	0.45	0.484	0.78	0.532	0.631	0.506
0.677	0.852	0.47	FSCLPYRRLAF [SLC52A2_Y305_G306R_YF]	0.992	0.428	0.589	0.478	0.568	0.411	0.826	0.559	0.432	0.806	0.531	0.63	0.902
0.786	0.594	0.501	FSGDFYRIQGR [DDR2_Y741_YF]	0.723	0.543	0.439	0.509	0.594	0.393	0.817	0.488	0.449	0.944	0.421	0.578	0.551
1.17	0.826	0.981	FSIAQYCCRMG [LRRK2_Y2023_G2019S_YF]	0.839	0.684	5.07	0.479	0.57	0.4	0.868	0.401	0.449	0.758	0.994	1.03	0.425
0.776	0.612	0.495	FSPGSYERETF [NF1_Y2192]	0.883	0.526	0.548	0.483	0.535	0.427	0.856	0.429	0.447	0.763	0.429	0.702	0.539
